For one molecule, IC50 results are on record in patent US5919901.

This test concerns the target T1, Rat Y4/PP1 (clone) (rat), Q63447.
T1 chain: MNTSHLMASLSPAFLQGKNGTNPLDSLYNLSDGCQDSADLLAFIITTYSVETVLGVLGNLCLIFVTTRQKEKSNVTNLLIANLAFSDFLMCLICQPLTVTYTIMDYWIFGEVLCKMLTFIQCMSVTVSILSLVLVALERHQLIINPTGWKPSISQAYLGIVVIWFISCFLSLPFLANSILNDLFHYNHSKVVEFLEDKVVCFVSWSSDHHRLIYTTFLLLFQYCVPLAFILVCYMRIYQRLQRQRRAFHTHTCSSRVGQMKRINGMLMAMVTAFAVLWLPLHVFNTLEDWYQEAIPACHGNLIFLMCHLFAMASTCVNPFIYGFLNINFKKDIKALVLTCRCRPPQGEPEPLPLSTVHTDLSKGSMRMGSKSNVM
Nature of the test: competition with rat [125I]PP on the rat Y4/PP1 clone. As to conditions: remark: other sources report otherwise.

Ends that are not written are not given here.

A word on the IC50: it is the concentration that inhibits the measured activity by half. Read a low IC50 as higher potency. In the case of PAEDLARYYSALRHYINLITRQRY (ends and bridges not checked) [p(13-36)NPY, P01304], the IC50 is > 1000 nM.
